Measured values as given in PMC9405973, “Altered Conformational Landscape upon Sensing Guanine Nucleotides in a Disease Mutant of Elongation Factor-like 1 (EFL1) GTPase” (Biomolecules, 2022).
Several values for one entry are separate records, joined by “and”; a condition that tells them apart may be missing. Equal values may be shown once.

Assays:
Efl1 R1086Q = biological target: T1, Efl1 R1086Q (Saccharomyces cerevisiae, UniProt P53893, R1086Q); assay: Isothermal titration calorimetry (ITC): binding of guanine nucleotides or Sdo1 to Efl1 R1086Q
T1 construct: made in house; host or cells: Saccharomyces cerevisiae
Description: All calorimetric measurements were carried out using MicroCal^TM iTC200 System (GE Healthcare, Northampton, MA, USA) in a temperature range of 25–35 °C. Experiments were performed in a buffer consisting of 50 mM Tris-HCl (pH 8.0), 150 mM NaCl, 100 µM DTT, and 5% glycerol. In the titrations with Mg^2+-bound nucleotides, both the ligand and protein solutions contained 5 mM MgCl2. In the case of titrations with Mg^2+-free nucleotide, both the ligand and protein solutions were supplemented with 2 mM EDTA to sequester any residual trace of metal ions in solution. Protein samples and ligands were prepared in the exact same buffer prior to each titration. Protein concentration in the cell comprised 30–50 µM GTPase, while the ligand concentration in the syringe was 2–3 mM for GTP, MgGTP, GDP, and MgGDP. To ensure measuring the interaction of the complex Efl1 R1086Q•Sdo1 with the nucleotide, an eight-fold concentration excess of Sdo1 was used compared with that of the enzyme. […] The titration schedule consisted of 15–20 consecutive injections of the ligand with 5 min intervals between injections and a stirring rate of 700 rpm. The dilution heat of the ligand was obtained by adding the ligand to a buffer solution under identical conditions and with the same injection schedule used for the protein sample. All samples were degassed for 10 min prior to the experiment.
The binding isotherms obtained for the isolated GTPase in the presence of Mg(II) were analysed using a ternary model in which the protein can bind to the free nucleotide (G(D)TP) or that bound to one magnesium ion (MgG(D)TP); additionally, GTP may also exist in the form of Mg2GTP, which is not recognised by the protein. The derivation of this coupled-equilibria model can be reviewed in [6, 31]. The binding constant (Kb), the enthalpy change (∆Hb), and the stoichiometry (n) were obtained with the non-linear routines implemented in Origin 5.0 (OriginLab, Co., Northampton, MA, USA) using a one-binding-site model as described in [32, 33]. The heterotropic cooperativity for the binding of guanine nucleotides and Sdo1 to Efl1 R1086Q were calculated as previously described in [6, 32]. The cooperative effects of Mg(II) on the binding of guanine nucleotides to Efl1 R1086Q alone and bound to Sdo1 were calculated as follows:κ = KE-MG/KE-G κ = KES-MG/KES-G Δh = ΔHE-MG − ΔHE-G Δh = ΔHES-MG − ΔHES-G where subscripts E-MG and E-G stand for the association of the metal-bound and metal-free guanine nucleotide with mutant Efl1, respectively. Corresponding expressions applied to the heterotropic cooperativity of the binding of nucleotides to the preformed complex, Efl1•Sdo1 (ES).
The impact of Sdo1 on the binding of Efl1 R1086Q to guanine nucleotides in the presence of magnesium ions is contained in KES-MG and ΔHES-MG relative to the KE-S and ΔHE-S values; analogous ratios report the effects in the absence of Mg(II):κ = KES-MG/KE-S κ = KES-G/KE-G Δh = ΔHES-MG − ΔHE-S Δh = ΔHES-G − ΔHE-G
The corresponding cooperative entropy change was calculated as:TΔs = Δh − Δg = Δh + RTlnκ
The detailed methodology and equations to compute the changes in the accessible surface area (∆ASA) of the GTPase upon binding to nucleotides and the ∆S energetic-based parameters are reported in [6]. Briefly, the water-accessible areas (ASAs) were computed using programme NACCESS, while the changes in accessible surface area (ΔASA) upon the formation of each GTPase–nucleotide complex were estimated considering the difference between the complex and the sum of the free interacting partners. The calculated polar (ΔASAp) and apolar (ΔASAap) area changes were subsequently used to estimate the free molecular partners. […]

wild-type Efl1 = settings: cited from earlier work
[1] = biological target: T2, S. cerevisiae Efl1 R1086Q (S. cerevisiae, UniProt P53893 1-1110, R1086Q); assay: ITC; 25 °C; GTPase in the cell (30-50 µM), Sdo1 as ligand; 50 mM Tris-HCl pH 8.0, 150 mM NaCl, 100 µM DTT, 5% glycerol; one-binding-site model; settings: both partners purified
T2 construct: Elongation Factor-like 1 (Efl1) GTPase of S. cerevisiae with the mutation R1086Q, equivalent to human EFL1 R1095Q; also called mutant Efl1; mutant R1086Q; source: recombinantly expressed in S. cerevisiae, purified
T2 sequence (looked up): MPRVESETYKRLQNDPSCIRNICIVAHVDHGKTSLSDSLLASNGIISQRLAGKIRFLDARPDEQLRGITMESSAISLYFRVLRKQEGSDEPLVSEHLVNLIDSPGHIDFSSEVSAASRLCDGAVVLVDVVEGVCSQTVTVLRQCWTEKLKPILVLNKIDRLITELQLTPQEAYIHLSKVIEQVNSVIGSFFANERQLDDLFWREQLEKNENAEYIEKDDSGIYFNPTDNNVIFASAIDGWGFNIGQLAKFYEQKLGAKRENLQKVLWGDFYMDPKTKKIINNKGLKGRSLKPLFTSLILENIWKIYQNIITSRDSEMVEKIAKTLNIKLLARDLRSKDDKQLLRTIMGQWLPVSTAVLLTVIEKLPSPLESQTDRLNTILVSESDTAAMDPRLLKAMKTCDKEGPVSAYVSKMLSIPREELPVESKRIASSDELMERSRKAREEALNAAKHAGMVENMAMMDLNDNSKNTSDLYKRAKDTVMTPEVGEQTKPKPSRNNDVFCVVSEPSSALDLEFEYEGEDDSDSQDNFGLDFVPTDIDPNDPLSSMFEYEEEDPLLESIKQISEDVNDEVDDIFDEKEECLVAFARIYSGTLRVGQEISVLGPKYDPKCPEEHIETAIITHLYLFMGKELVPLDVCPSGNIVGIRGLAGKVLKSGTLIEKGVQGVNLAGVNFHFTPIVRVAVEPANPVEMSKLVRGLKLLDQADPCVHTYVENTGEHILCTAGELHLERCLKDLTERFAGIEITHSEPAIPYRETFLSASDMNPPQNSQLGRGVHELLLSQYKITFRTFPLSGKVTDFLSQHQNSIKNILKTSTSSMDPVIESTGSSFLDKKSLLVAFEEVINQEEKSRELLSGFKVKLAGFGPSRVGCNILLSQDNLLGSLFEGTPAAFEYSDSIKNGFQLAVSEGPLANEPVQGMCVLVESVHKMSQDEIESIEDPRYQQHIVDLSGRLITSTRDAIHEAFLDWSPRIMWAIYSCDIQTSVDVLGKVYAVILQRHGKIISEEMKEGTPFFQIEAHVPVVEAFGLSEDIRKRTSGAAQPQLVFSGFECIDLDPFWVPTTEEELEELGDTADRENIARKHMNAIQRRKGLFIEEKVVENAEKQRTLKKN

[2] = biological target: T2, S. cerevisiae Efl1 R1086Q; assay: ITC; 30 °C; GTPase in the cell (30-50 µM), Sdo1 as ligand; 50 mM Tris-HCl pH 8.0, 150 mM NaCl, 100 µM DTT, 5% glycerol; one-binding-site model; settings: both partners purified
[3] = biological target: T2, S. cerevisiae Efl1 R1086Q; assay: ITC; 35 °C; GTPase in the cell (30-50 µM), Sdo1 as ligand; 50 mM Tris-HCl pH 8.0, 150 mM NaCl, 100 µM DTT, 5% glycerol; one-binding-site model; settings: both partners purified
[4] = biological target: T2, S. cerevisiae Efl1 R1086Q; assay: ITC; coupled equilibria at 30 °C with MgGDP (5 mM MgCl2); heterotropic cooperativity calculated from the titrations of Efl1 R1086Q and of Efl1 R1086Q•Sdo1; settings: both partners purified

B1: Yeast SBDS (Sdo1) (natural protein, S. cerevisiae, UniProt Q07953 1-250, looked up)
chain: MPINQPSGQIKLTNVSLVRLKKARKRFEVACYQNKVQDYRKGIEKDLDEVLQIHQVFMNVSKGLVANKEDLQKCFGTTNVDDVIEEIMHKGEIQLSEKERQLMLNKVNNEMLTIVSAKCINPVSKKRYPPTMIHKALQELKFSPVINKPAKLQALEAIKLLVSKQIIPIVRAKMKVKVAISEPSRQPELIEKISKLIASSPGESTKPELDPWTCTGLIDPVNYRDLMTLCDKKGTVQVLDMAVIDNTTHN
notes: Sdo1, the yeast orthologue of SBDS; also called yeast Shwachman-Bodian-Diamond syndrome protein; source: E. coli C41, purified
Efl1 R1086Q; ligand Sdo1, 25 °C
  -TΔSb: -3.1 kcal/mol
  ΔGb: -7.4 kcal/mol
Efl1 R1086Q; ligand Sdo1, 30 °C
  -TΔSb: -1.3 kcal/mol
  ΔGb: -7.6 kcal/mol
Efl1 R1086Q; ligand Sdo1, 30 °C, read-out: Kd
  Kd: 3000 nM
Efl1 R1086Q; ligand Sdo1, 35 °C
  -TΔSb: 0.6 kcal/mol
  ΔGb: -8.1 kcal/mol
Efl1 R1086Q; ligand Sdo1, from ΔHb at 25–35 °C
  ΔCpb: −440 cal mol^−1 K^−1 and −440 ± 23 cal mol^−1 K^−1
wild-type Efl1; ligand Sdo1, 30 °C
  -TΔSb: 4.4 kcal/mol
  Kd: 300 nM
  ΔGb: -9.0 kcal/mol
  ΔHb: -13.4 ± 0.4 kcal/mol
wild-type Efl1; ligand Sdo1
  ΔCpb: −860 cal mol^−1 K^−1 and −860 ± 31 cal mol^−1 K^−1
[1]
  Ka: 256000 ± 47000 M⁻¹
  Kd: 3.9 ± 0.7 µM
  dH: -4.3 ± 0.1 kcal/mol
[2]
  Ka: 288000 ± 56000 M⁻¹
  Kd: 3.4 ± 0.6 µM
  dH: -6.3 ± 0.2 kcal/mol
[3]
  Ka: 543000 ± 76000 M⁻¹
  Kd: 1800 ± 200 nM
  dH: -8.7 ± 0.1 kcal/mol
[4]
  fold decrease of the interaction with MgGDP against no nucleotide: 3 fold
